{
  "source": "patent US20170334962A1",
  "about": "(TEXAS A AND M UNIVERSITY SYSTEM, published 2017)",
  "binders": {"B1": {"name": "WT mouse Fc-hinge fragment (IgG1-derived) (other, UniProt P01868 98-324, looked up)", "chain": "VPRDCGCKPCICTVPEVSSVFIFPPKPKDVLTITLTPKVTCVVVDISKDDPEVQFSWFVDDVEVHTAQTQPREEQFNSTFRSVSELPIMHQDWLNGKEFKCRVNSAAFPAPIEKTISKTKGRPKAPQVYTIPPPKEQMAKDKVSLTCMITDFFPEDITVEWQWNGQPAENYKNTQPIMNTNGSYFVYSKLNVQKSNWEAGNTFTCSVLHEGLHNHHTEKSLSHSPGK", "notes": "domain: Fc-hinge; Recombinant Fc-hinge made in CHO-S cells by methods analogous to those for the Fc-MBP fusions; also called WT Fc-hinge"}, "B2": {"name": "m-set-1 mouse Fc-hinge fragment (IgG1-derived; T252L/T254S/T256F/E380A/H433K/N434F) (other, UniProt P01868 98-324, looked up)", "chain": "B1 chain with T32L, T34S, T36F, E160A, H213K, N214F", "notes": "domain: Fc-hinge; also called mutation-set-1"}, "B3": {"name": "m-set-2 mouse Fc-hinge fragment (IgG1-derived; T252Y/T256E/H433K/N434F) (other, UniProt P01868 98-324, looked up)", "chain": "B1 chain with T32Y, T36E, H213K, N214F", "notes": "domain: Fc-hinge; also called mutation-set-2; TT-HN"}, "B4": {"name": "mIgG1-Fc(WT)-OVA(323-339) (Fc fusion)", "chain": "VPRDCGCKPCICTVPEVSSVFIFPPKPKDVLTITLTPKVTCVVVDISKDDPEVQFSWFVDDVEVHTAQTQPREEQFNSTFRSVSELPIMHQDWLNGKEFKCRVNSAAFPAPIEKTISKTKGRPKAPQVYTIPPPKEQMAKDKVSLTCMITDFFPEDITVEWQWNGQPAENYKNTQPIMDTDGSYFVYSKLNVQKSNWEAGNTFTCSVLHEGLHNHHTEKSLSHSPGKGSGGISQAVHAAHAEINEAGRGSGHHHHHH"}, "B5": {"name": "mIgG1-Fc(H435A)-OVA(323-339) (Fc fusion)", "chain": "B4 chain with H215A", "notes": "The limits of the leader are inferred as for m4"}, "B6": {"name": "mIgG1-Fc(TT-HN)-OVA(323-339) (Fc fusion)", "chain": "B4 chain with T32Y, T36E, H213K, N214F", "notes": "The limits of the leader are inferred as for m4; also called Fc(T252Y/T256E/H433K/N434F)-antigen"}},
  "key": {"[1]": {"biological_target": "T1, recombinant soluble mouse FcRn (mouse, UniProt Q61559 22-290; P01887 21-119, limits assumed)", "T1 construct": "also called mFcRn", "T1 sequence (looked up) 1": "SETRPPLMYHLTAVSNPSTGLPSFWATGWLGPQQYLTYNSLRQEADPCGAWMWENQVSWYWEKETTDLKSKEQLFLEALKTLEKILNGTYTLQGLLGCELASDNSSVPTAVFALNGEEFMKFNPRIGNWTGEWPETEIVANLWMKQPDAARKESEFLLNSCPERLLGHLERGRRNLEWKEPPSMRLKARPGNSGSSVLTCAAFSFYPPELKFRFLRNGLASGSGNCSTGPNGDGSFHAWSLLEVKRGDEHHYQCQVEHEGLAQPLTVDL", "T1 sequence (looked up) 2": "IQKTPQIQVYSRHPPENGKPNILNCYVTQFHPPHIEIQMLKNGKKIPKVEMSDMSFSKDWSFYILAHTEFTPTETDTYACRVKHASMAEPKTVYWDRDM", "assay": "SPR (BIAcore 2000), Fc-hinge immobilized by amine coupling, soluble mouse FcRn as analyte, pH 6.0; value for the higher affinity site; pH 6.0", "experimental": "(§1) Equilibrium dissociation constants of WT and mutated mouse Fc-hinge fragments (IgG1-derived) for binding to recombinant mouse FcRn were determined using surface plasmon resonance and a BlAcore 2000. Mouse Fc-hinge fragments were immobilized by amine coupling chemistry (to a density of ˜250-850 RU) and BlAcore experiments carried out as described previously, using soluble mouse FcRn in Dulbecco's phosphate-buffered saline (DPBS) plus 0.01% Tween pH 6.0 or 7.4 as analyte. FcRn binds to two sites on IgG that are not equivalent. […] The data were processed as described previously."}, "[2]": {"biological_target": "T1, recombinant soluble mouse FcRn", "assay": "SPR (BIAcore 2000), Fc-hinge immobilized by amine coupling, soluble mouse FcRn as analyte, pH 7.4; value for the higher affinity site", "experimental": "as §1"}, "[3]": {"biological_target": "T1, recombinant soluble mouse FcRn", "assay": "SPR (BIAcore 2000), Fc-hinge immobilized by amine coupling, soluble mouse FcRn as analyte, pH 6.0; value for the higher affinity site", "experimental": "as §1"}, "[4]": {"biological_target": "T1, recombinant soluble mouse FcRn", "assay": "SPR (BIAcore T200), fusion immobilized on a CM5 chip, mFcRn as analyte, pH 6.0; value for the higher affinity site; pH 6.0", "experimental": "(§2) Equilibrium dissociation constants (KDs) for the binding of Fc-OVA(323-339) (WT, TT-HN and H435A) to recombinant mouse FcRn were determined using surface plasmon resonance (BlAcore T200; GE Healthcare) and previously described methods. CM5 chips were coupled with recombinant Fc(WT)-OVA(323-339), Fc(TT-HN)-OVA(323-339), and Fc(H435A)-OVA(323-339) to densities of ˜500-900 RU followed by injection of mFcRn at various concentrations (1-2000 nM) at a flow rate of 10 μl/min using PBS (pH 6.0 or 7.4; Lonza), 0.01% (v/v) Tween-20 as running buffer. Flow cells were regenerated at the end of each cycle using 0.15 M NaCl, 0.1 M sodium bicarbonate (pH 8.5) buffer. FcRn binds to two sites on IgG-Fc that are not equivalent. […] The data were processed as described previously."}, "[5]": {"biological_target": "T1, recombinant soluble mouse FcRn", "assay": "SPR (BIAcore T200), fusion immobilized on a CM5 chip, mFcRn as analyte, pH 6.0", "experimental": "as §2"}, "[6]": {"biological_target": "T1, recombinant soluble mouse FcRn", "assay": "SPR (BIAcore T200), fusion immobilized on a CM5 chip, mFcRn as analyte, pH 7.4; value for the higher affinity site", "experimental": "as §2"}, "[7]": {"biological_target": "T1, recombinant soluble mouse FcRn", "assay": "SPR (BIAcore T200), fusion immobilized on a CM5 chip, mFcRn as analyte, pH 6.0; value for the higher affinity site", "experimental": "as §2"}},
  "note": "Positions count from the first letter of the chain named. Names and notes keep the numbering of the source.",
  "data": [
    {"binder": "B1", "values": [
      {"measurement": "Kd", "setting": "[1]", "result": 218, "unit": "nM"}
    ]},
    {"binder": "B2", "values": [
      {"measurement": "Kd", "setting": "[2]", "result": 115, "unit": "nM"},
      {"measurement": "Kd", "setting": "[3]", "result": 2.6, "unit": "nM"}
    ]},
    {"binder": "B3", "values": [
      {"measurement": "Kd", "setting": "[2]", "result": 20.4, "unit": "nM"},
      {"measurement": "Kd", "setting": "[3]", "result": 1.1, "unit": "nM"}
    ]},
    {"binder": "B4", "values": [
      {"measurement": "Kd", "setting": "[4]", "result": 300, "unit": "nM"}
    ]},
    {"binder": "B5", "values": [
      {"measurement": "binding result", "setting": "[5]", "result": "no binding (tested: mFcRn injected at 1-2000 nM)"}
    ]},
    {"binder": "B6", "values": [
      {"measurement": "Kd", "setting": "[6]", "result": 14.9, "unit": "nM"},
      {"measurement": "Kd", "setting": "[7]", "result": 3, "unit": "nM"}
    ]}
  ]
}
